Assay results taken from US20130142788A1 (published 2013).
* marks the point of attachment. Biotin = O=C1N[C@H]2[C@H](CS[C@H]2CCCCC(=O)*)N1

Tests used:
[1] = target: T1, recombinant mature dimeric myostatin (human and mouse (mature sequences 100% …, UniProt O08689 268-376)); experiment: cell-based or functional assay
T1 sequence: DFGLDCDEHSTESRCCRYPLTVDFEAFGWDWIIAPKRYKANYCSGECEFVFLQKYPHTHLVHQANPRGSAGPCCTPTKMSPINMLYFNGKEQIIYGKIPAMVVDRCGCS

[2] = target: T2, myostatin artificial peptide No 1 (…) (N-terminus H-; C-terminus -NH2); experiment: SRU BIND biosensor, peptides captured on streptavidin plate
T2 construct: also called Peptide 1
Procedure: (§1) Work was carried out on an SRU BIND reader (SRU Biosystems). A streptavidin biosensor plate was washed, a baseline reading taken, and biotinylated peptides captured onto the streptavidin coated biosensor plate. The plate was washed again, and a new baseline reading taken, antibody was then added and binding monitored.

[3] = target: T3, myostatin artificial peptide No 5 (SGSGHSTESRCCRYPLTV) (cysteine pairing not given here); experiment: as above
T3 construct: also called Peptide 5
T3 peptide: Biotin-SGSGHSTESRCCRYPLTV-NH2
Procedure: as §1

[4] = target: T4, myostatin artificial peptide No 15 (SGSGWDWIIAPKRYKANY) (HELM PEPTIDE1{[O=C1N[C@H]2[C@H](CS[C@H]2CCCCC(=O)[*:2])N1].S.G.S.G.W.D.W.I.I.A.P.K.R.Y.K.A.N.Y.[am]}$$$$V2.0; SMILES …); experiment: as above
T4 construct: also called Peptide 15
T4 peptide: SGSGWDWIIAPKRYKANY
Procedure: as §1

[5] = target: T5, myostatin artificial peptide No 19 (SGSGRYKANYCSGECEFV) (cysteine pairing not given here); experiment: as above
T5 construct: also called Peptide 19
T5 peptide: Biotin-SGSGRYKANYCSGECEFV-NH2
Procedure: as §1

[6] = target: T6, myostatin artificial peptide No 23 (SGSGGECEFVFLQKYPHT) (HELM PEPTIDE1{[O=C1N[C@H]2[C@H](CS[C@H]2CCCCC(=O)[*:2])N1].S.G.S.G.G.E.C.E.F.V.F.L.Q.K.Y.P.H.T.[am]}$$$$V2.0; SMILES …); experiment: as above
T6 construct: also called Peptide 23
T6 peptide: SGSGGECEFVFLQKYPHT
Procedure: as §1

[7] = target: T7, myostatin artificial peptide No 27 (SGSGQKYPHTHLVHQANP) (HELM PEPTIDE1{[O=C1N[C@H]2[C@H](CS[C@H]2CCCCC(=O)[*:2])N1].S.G.S.G.Q.K.Y.P.H.T.H.L.V.H.Q.A.N.P.[am]}$$$$V2.0; SMILES …); experiment: as above
T7 construct: also called Peptide 27
T7 peptide: SGSGQKYPHTHLVHQANP
Procedure: as §1

[8] = target: T8, myostatin artificial peptide No 29 (SGSGHTHLVHQANPRGSA) (HELM PEPTIDE1{[O=C1N[C@H]2[C@H](CS[C@H]2CCCCC(=O)[*:2])N1].S.G.S.G.H.T.H.L.V.H.Q.A.N.P.R.G.S.A.[am]}$$$$V2.0; SMILES …); experiment: as above
T8 construct: also called Peptide 29
T8 peptide: SGSGHTHLVHQANPRGSA
Procedure: as §1

[9] = target: T9, myostatin artificial peptide No 33 (SGSGNPRGSAGPCCTPTK) (cysteine pairing not given here); experiment: as above
T9 construct: also called Peptide 33
T9 peptide: Biotin-SGSGNPRGSAGPCCTPTK-NH2
Procedure: as §1

[10] = target: T10, myostatin artificial peptide No 37 (SGSGCCTPTKMSPINMLY) (cysteine pairing not given here); experiment: as above
T10 construct: also called Peptide 37
T10 peptide: Biotin-SGSGCCTPTKMSPINMLY-NH2
Procedure: as §1

[11] = target: T11, myostatin artificial peptide No 45 (SGSGGKEQIIYGKIPAMV) (HELM PEPTIDE1{[O=C1N[C@H]2[C@H](CS[C@H]2CCCCC(=O)[*:2])N1].S.G.S.G.G.K.E.Q.I.I.Y.G.K.I.P.A.M.V.[am]}$$$$V2.0; SMILES …); experiment: as above
T11 construct: also called Peptide 45
T11 peptide: SGSGGKEQIIYGKIPAMV
Procedure: as §1

[12] = target: T12, myostatin artificial peptide No 47 (SGSGIIYGKIPAMVVDRC) (HELM PEPTIDE1{[O=C1N[C@H]2[C@H](CS[C@H]2CCCCC(=O)[*:2])N1].S.G.S.G.I.I.Y.G.K.I.P.A.M.V.V.D.R.C.[am]}$$$$V2.0; SMILES …); experiment: as above
T12 construct: also called Peptide 47
T12 peptide: SGSGIIYGKIPAMVVDRC
Procedure: as §1

[13] = target: T13, myostatin artificial peptide No 49 (SGSGGKIPAMVVDRCGCS) (cysteine pairing not given here); experiment: as above
T13 construct: also called Peptide 49
T13 peptide: Biotin-SGSGGKIPAMVVDRCGCS-OH
Procedure: as §1

[14] = target: T1, recombinant mature dimeric myostatin; experiment: ActRIIb receptor binding assay: inhibition of biotinylated myostatin binding to coated ActRIIb
Procedure: Recombinant soluble ActRIIb (R&D Systems 339-RBB) was coated in wells of an ELISA plate at 1 μg/ml in carbonate buffer overnight at 4° C. Plates were blocked (see Block solution above at 2.3) and washed following standard ELISA protocols. In parallel, 2 nM biotinylated myostatin (in-house, as described in 1.1, biotinylated material) was pre-incubated with an antibody dilution series consisting of 10B3, 10B3C, and a negative control (IgG1 isotype control) for 2 hours at 37° C. The biotinylated myostatin:antibody reactions were then added to the ActRIIb coated plate for 1 hour at 37° C. Standard wash procedures were followed prior to addition of 1:1000 diluted streptavidin-HRP conjugate (Dako P0397) and a further 37° C. incubation for 1 hour. Plates were again washed and assayed at absorbance 490 nm following OPD substrate (Sigma) and acid stop solution treatment. Inhibition curves and IC50 values for the inhibition of myostatin activity are shown in FIG. 5 and Table 8 respectively.

- IC50, myostatin responsive reporter gene assay (A204 cells, luciferase) [1]: 10 nM
- binding result [2]: no binding
- binding result [3]: no binding
- binding result [4]: no binding
- binding result [5]: no binding
- binding result [6]: no binding
- binding result [7]: no binding
- binding result [8]: no binding
- binding result [9]: no binding
- binding result [10]: no binding
- binding result [11]: no binding
- binding result [12]: no binding
- binding result [13]: no binding
- IC50 [14]: 0.161 nM
B1: mouse monoclonal antibody 10B3 (antibody, mouse IgG2a, V domains shown)
VH: EVQLQQSGPELVKPGASVKISCKASGYSFTGYFMHWVKQSHGNILDWIGNIYPYNGVSNYNQRFKAKATLTVDKSSSTAYMELRSLTSEDSAVYYCARRYYYGTGPADWYFDVWGTGTTVTVSS
VL: DIKMTQSPSSMYASLRERVTITCKASQDINSYLSWFQQKPGKSPKTLIYRANRLVDGVPSRFSGSGSGQDYSLTISSLEYEDMGIYYCLQCDEFPLTFGAGTKLELK
notes: Murine IgG2a/k; also called 10B3 mouse parental; parental 10B3
